Source: patent US20030099631A1

T1: DNP-Pro-Cha-Abu-Cys(Me)-His-Ala-Lys(N-Me-Abz)-NH2
T1 sequence: PXXCHAK


Experiments:
[1] = system: T1, DNP-Pro-Cha-Abu-Cys(Me)-His-Ala-Lys(N-Me-Abz)-NH2

| Molecule | intensity of fluorescence (excitation 365 nm, emission 460 nm) after cleavage of the substrate [1] | casein hydrolyzing activity (PER assay) (casein) |
| --- | --- | --- |
| recombinant human liver-derived metalloprotease expressed in Escherichia coli JM109/pNHMB | a fluorescence intensity of 230 |  |
| human liver-derived metalloprotease transiently expressed in COS-7 cells transfected with pTB1921 (culture supernatant, treated with aminophenyl-mercuric … (protein) YLLLGRWRKKHLTFRILNLPSTLPPHTARAALRQAFQDWSNVAPLTFQEVQAGAADIRLSFHGRQSSYCSNTFDGPGRVLAHADIPELGSVHFDEDEFWTEGTYRGVNLRIIAAHEVGHALGLGHSRYSQALMAPVYEGYRPHFKLHPDDVAGIQALYGKKSPVIRDEEEEETELPTVPPVPTEPSPMPDPCSSELDAMMLGPRGKTYAFKGDYVWTVSDSGPGPLFRVSALWEGLPGNLDAAVYSPRTQWIHFFKGDKVWRYINFKMSPGFPKKLNRVEPNLDAALYWPLNQKVFLFKGSGYWQWDELARTDFSSYPKPIKGLFTGVPNQPSAAMSWQDGRVYFFKGKVYWRLNQQLRVEKGYPRNISHNWMHCRPRTIDTTPSGGNTTPSGTGITLDTTLSATETTFEY |  | casein hydrolyzing activity which was not found in the mock culture supernatant was detected in the culture supernatant of COS-7 cells transfected with pTB1921 |
